Results reported in PMC6328559.

Experiments:
[1] = biological target: SLy1 SAM domain construct SAMwt (SLy1 residues P254-E321 with an N-terminal glycine from the tag) (mouse) (UniProt Q8K352); assay: AUC; sedimentation equilibrium, 30 °C, standard buffer (50 mM potassium phosphate, 20 mM NaCl, 0.1 mM EDTA, pH 6.4) without NaN3; three loading concentrations (SAMwt 60, 120, 300 µM; SAMlg 31, 64, 98 µM) at several speeds; global fit to a monomer-dimer equilibrium; dimer to monomers
[2] = biological target: SLy1 SAM domain construct SAMwt (SLy1 residues P254-E321 with an N-terminal glycine from the tag) (mouse) (UniProt Q8K352); assay: MST; Alexa Fluor 488 labelled protein kept constant (SAMwt 70 nM, SAMlg 60 nM), total protein varied (SAMwt 1.1-824 µM, SAMlg 0.2-250 µM); standard buffer pH 6.4, room temperature; fit to a monomer-dimer equilibrium; dimer to monomers
TEL SAM (Homo sapiens) = TEL SAM (Homo sapiens) (UniProt P41212); settings: cited from earlier work
[3] = biological target: Yan SAM (Drosophila melanogaster) (UniProt Q01842); settings: cited from earlier work

TEL SAM, sequence (P41212 40-124): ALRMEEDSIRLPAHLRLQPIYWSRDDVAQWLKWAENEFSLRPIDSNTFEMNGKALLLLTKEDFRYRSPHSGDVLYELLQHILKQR
Yan SAM, sequence (Q01842 33-117): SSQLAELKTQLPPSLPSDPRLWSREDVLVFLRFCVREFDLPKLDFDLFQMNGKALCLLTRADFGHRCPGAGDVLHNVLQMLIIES

## SLy1 SAM domain construct SAMwt (SLy1 residues P254-E321 with an N-terminal glycine from the tag) (from UniProt Q8K352 254-321) (domain or fragment)
[1]
  Ka: 8500 M⁻¹
  Kd: 117 µM
  stoichiometry N: 2
[2]
  Kd: 153 µM

## TEL SAM (from UniProt P41212)
TEL SAM (Homo sapiens)
  Kd: 0.0017 µM

## Yan SAM (from UniProt Q01842)
[3]
  Kd: 11 µM
